Experimental data published in patent US20240400689A1 (ANTENGENE BIOLOGICS, published 2024).
Read-outs that look alike come from different tables or passages of the source. Blank lines part the entries; values can stand above or below the binder they belong to.

Experiments:
[1] = target: T1, human CD276 protein (human, UniProt Q5ZPR3 29-534); assay: FACS titration on SKOV3 cells (MFI against Conc. (nM)); unit taken from the concentration axis
T1 construct: whole, on cells; for SKOV3 and the other cancer lines the protein is the cells' own; also called B7-H3; B7H3
T1 sequence (looked up): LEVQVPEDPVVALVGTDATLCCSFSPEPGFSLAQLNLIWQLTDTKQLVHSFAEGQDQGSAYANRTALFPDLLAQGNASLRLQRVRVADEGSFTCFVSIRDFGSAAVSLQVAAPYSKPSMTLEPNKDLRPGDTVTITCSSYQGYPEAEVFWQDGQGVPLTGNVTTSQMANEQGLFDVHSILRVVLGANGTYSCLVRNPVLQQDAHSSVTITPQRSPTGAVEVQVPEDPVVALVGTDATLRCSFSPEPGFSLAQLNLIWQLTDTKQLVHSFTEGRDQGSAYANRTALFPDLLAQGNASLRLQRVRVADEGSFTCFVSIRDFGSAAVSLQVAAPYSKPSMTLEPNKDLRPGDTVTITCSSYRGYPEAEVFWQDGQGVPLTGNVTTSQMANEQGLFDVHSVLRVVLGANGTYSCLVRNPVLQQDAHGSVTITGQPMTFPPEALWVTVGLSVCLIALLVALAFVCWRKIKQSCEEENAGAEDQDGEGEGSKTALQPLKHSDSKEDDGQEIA

[2] = target: T1, human CD276 protein; assay: as above; remark: listed apart in the source
From the text: Sequences of 31 mouse antibodies from Table 5 were selected to generate and produce human IgG1 chimeric antibodies. The binding affinity of these antibodies and bench mark antibody, Enoblituzumab (see U.S. Pat. No. 8,802,091, MGA271, specifically with a construct designated as hBRCA84D-2) and MGC018 (an antibody-drug-conjugate, in which the mAb MGA017 (human IgG1) is conjugated via a cleavable linker to the prodrug seco-DUocarmycin hydroxyBenzamide Azaindole (DUBA), an alkylating agent that can damage DNA in both dividing and non-dividing cells, thereby causing cell death) with human patient derived ovarian cancer cell line, SKOV3, was determined by FACS analysis.
1. Digested cells using Trypsin (1×); Centrifuged the harvested cells at 300 g for 3 min and discarding the supernatant. […] 2. Washed the cells 2 times with FACS buffer by centrifuging at 300 g for 3 min and discarding the supernatant. [0445] 3. […] Kept the cells in dark for FACS analysis.

[3] = target: T2, HUMAN B7H3 (Biacore analyte) (human, UniProt Q5ZPR3 29-461, limits assumed); assay: SPR, Biacore 8K, antibody captured, B7H3 as analyte, 1:1 binding
T2 construct: also called hB7H3
T2 sequence (looked up): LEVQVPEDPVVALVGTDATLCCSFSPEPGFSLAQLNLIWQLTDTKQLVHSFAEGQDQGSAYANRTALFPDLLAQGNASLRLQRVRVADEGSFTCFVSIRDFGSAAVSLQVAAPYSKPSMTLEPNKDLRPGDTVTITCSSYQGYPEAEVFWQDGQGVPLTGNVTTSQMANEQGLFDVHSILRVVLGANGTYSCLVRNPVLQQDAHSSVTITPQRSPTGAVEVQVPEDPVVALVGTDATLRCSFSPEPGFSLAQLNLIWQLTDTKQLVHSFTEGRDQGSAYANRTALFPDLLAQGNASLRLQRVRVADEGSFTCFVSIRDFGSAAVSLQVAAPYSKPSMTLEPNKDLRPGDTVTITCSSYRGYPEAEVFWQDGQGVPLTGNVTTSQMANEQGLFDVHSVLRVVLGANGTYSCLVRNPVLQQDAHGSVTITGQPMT

[4] = target: T1, human CD276 protein; assay: FACS on SKOV3 cells
In short: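 Human IgG1 chimeric antibodies were tested for binding to trypsin-detached SKOV3 ovarian cancer cells by flow cytometry, with cells washed in FACS buffer and kept in the dark before acquisition. Titration read-out was MFI plotted against antibody concentration (nM).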

[5] = target: T1, human CD276 protein; assay: cell-based or functional assay
[6] = target: T1, human CD276 protein; assay: cell-based or functional assay; remark: listed apart in the source
[7] = target: T2, HUMAN B7H3 (Biacore analyte); assay: SPR, Biacore 8K, antibody captured, B7H3 as analyte, 1:1 binding; remark: listed apart in the source
[8] = target: T1, human CD276 protein; assay: cell-based or functional assay; remark: listed apart in the source

EC50 [1]: 5.93 nM
B1: hVH3-hVL2-30 (antibody, V domains shown)
VH: QVQLQESGPGLVKPSETLSLTCTVSGYSITSDYAWNWIRQPPGKGLEWIGYISHSGSTSYNPSLKSRVTISRDTSKNQFSLKLSSVTAADTAVYYCARSLGRRWYFDVWGQGTTVTVSS
VL: DIVMTQSPDSLAVSLGERATINCKSSQSLLNSSTQKNYLAWYQQKPGQPPKLLIYFASTRDSGVPDRFSGSGSGTDFTLTISSLQAEDLAVYFCQQHYIIPFTFGQGTKLEIK

EC50 [1]: 9.77 nM
B2: hVH4-hVL2-30 (antibody, V domains shown)
VH: QVQLQESGPGLVKPSQTLSLTCAVYGYSITSDYAWNWIRQPPGKGLEWIGYISHSGSTSYNPSLKSRVTISRDTSKNQFSLKLSSVTAADTAVYYCARSLGRRWYFDVWGQGTTVTVSS
VL: DIVMTQSPDSLAVSLGERATINCKSSQSLLNSSTQKNYLAWYQQKPGQPPKLLIYFASTRDSGVPDRFSGSGSGTDFTLTISSLQAEDLAVYFCQQHYIIPFTFGQGTKLEIK

EC50 [2]: 1.92 nM
B3: hVH2-hVL1-10 (antibody, V domains shown)
VH: EVQLVESGGGLVQPGGSLRLSCATSGFTLSDYYMSWVRQAPGKGLEWVSFMRNKANGYTTEYSASVRGRFTISRDTSKSTIYLQMNSLRAEDTAVYYCVRDRDGRPFAYWGQGTLVTVSS
VL: DIVMTQSPDSLAVSLGERATINCKSSQSLLNSINQKNFLTWYQQKPGQPPKLLIYWASTRESGVPDRFSGSGSGTDFTLTISSLQAEDLAVYYCQNDYTYPLTFGQGTKLEIK

EC50 [2]: 2.75 nM
B4: hVH3-hVL3-10 (antibody, V domains shown)
VH: EVQLVESGGGLVQPGGSLRLSCATSGFTLSDYYMSWVRQAPGKGLEWVGFMRNKANGYTTEYSASVRGRFTISRDTSKSSIYLQMNSLKTEDTAVYYCVRDRDGRPFAYWGQGTLVTVSS
VL: DIQMTQSPSSLSASVGDRVTITCKSSQSLLNSINQKNFLTWYQQKPGKAPKLLIYWASTRESGVPSRFSGSGSGTDFTLTISSLQPEDLATYYCQNDYTYPLTFGQGTKLEIK

EC50 [2]: 4.43 nM
B5: hVH4-hVL2-10 (antibody, V domains shown)
VH: EVQLVESGGGLIQPGGSLRLSCATSGFTLSDYYMSWVRQPPGKGLEWVSFMRNKANGYTTEYSASVRGRFTISRDTSKSTIYLQMNSLRAEDTAVYYCVRDRDGRPFAYWGQGTLVTVSS
VL: DIVMTQSPLSLPVTPGEPASISCKSSQSLLNSINQKNFLTWYLQKPGQSPQLLIYWASTRESGVPDRFSGSGSGTDFTLKISRVEAEDLGVYYCQNDYTYPLTFGQGTKLEIK

EC50 [2]: 2.63 nM
B6: hVH5-hVL1-10 (antibody, V domains shown)
VH: EVQLVESGGGLVQPGRSLRLSCTTSGFTLSDYYMSWVRQAPGKGLEWVGFMRNKANGYTTEYSASVRGRFTISRDTSKSIIYLQMNSLKTEDTAVYYCVRDRDGRPFAYWGQGTLVTVSS
VL: DIVMTQSPDSLAVSLGERATINCKSSQSLLNSINQKNFLTWYQQKPGQPPKLLIYWASTRESGVPDRFSGSGSGTDFTLTISSLQAEDLAVYYCQNDYTYPLTFGQGTKLEIK

EC50 [2]: 2.98 nM
B7: hVH5-hVL3-10 (antibody, V domains shown)
VH: EVQLVESGGGLVQPGRSLRLSCTTSGFTLSDYYMSWVRQAPGKGLEWVGFMRNKANGYTTEYSASVRGRFTISRDTSKSIIYLQMNSLKTEDTAVYYCVRDRDGRPFAYWGQGTLVTVSS
VL: DIQMTQSPSSLSASVGDRVTITCKSSQSLLNSINQKNFLTWYQQKPGKAPKLLIYWASTRESGVPSRFSGSGSGTDFTLTISSLQPEDLATYYCQNDYTYPLTFGQGTKLEIK

EC50 [2]: 1.9 nM
B8: hVH4-hVL1-10 (antibody, V domains shown)
VH: EVQLVESGGGLIQPGGSLRLSCATSGFTLSDYYMSWVRQPPGKGLEWVSFMRNKANGYTTEYSASVRGRFTISRDTSKSTIYLQMNSLRAEDTAVYYCVRDRDGRPFAYWGQGTLVTVSS
VL: DIVMTQSPDSLAVSLGERATINCKSSQSLLNSINQKNFLTWYQQKPGQPPKLLIYWASTRESGVPDRFSGSGSGTDFTLTISSLQAEDLAVYYCQNDYTYPLTFGQGTKLEIK

Kd [3]: 0.785 nM
koff [3]: 0.000198 s⁻¹
kon [3]: 252000 M⁻¹ s⁻¹
EC50 [2]: 2.33 nM
EC50 [4]: 0.822 µg/mL
MFI (Max) [4]: 5640
EC50 of antibody induced ADCC effect on SKOV3 [6]: 0.237 µg/mL
Kd [7]: 0.415 nM
koff [7]: 8.97e-05 s⁻¹
kon [7]: 216000 M⁻¹ s⁻¹
EC50 of antibody induced CDC effect [8]: 2.74 nM
B9: 10-G6-C4-B2 (human IgG1 chimeric antibody) (antibody, V domains shown)
VH: EVQLVESGGGLVQPGGSLRLSCATSGFTLSDYYMSWVRQPPGKAPEWLGFMRNKANGYTTEYSASVRGRFTISRDTSQSIIYLQMNTLRAEDGATYYCVRDRDGRPFAYWGQGTLVTVSA
VL: DIVMTQSPSSLTVTAGEKVTMSCKSSQSLLNSINQKNFLTWYQQKPGQPPKLLIYWASTRESGVPDRFTGSGSGTDFTLTISSVQAEDLAIYYCQNDYTYPLTFGTGTKLELK
notes: human IgG1 chimeric antibody of the mouse clone
IC50 of indirect ADC cytotoxicity on SKOV3 [5]: 0.008 nM
Top cytotoxicity (%), CDC [8]: 93.5%

EC50 [2]: 2.76 nM
B10: mVH5-mVL4-10 (antibody, V domains shown)
VH: EVQLVESGGGLVQPGGSLRLSCATSGFTLSDYYMSWVRQPPGKAPEWLGFMRNKANAYTTEYSASVRGRFTISRDTSQSIIYLQMNTLRAEDGATYYCVRDREGRPFAYWGQGTLVTVSA
VL: DIVMTQSPSSLTVTAGEKVTMSCKSSQSLLNAINQKNFLTWYQQKPGQPPKLLIYWASTRESGVPDRFTGSGSGTDFTLTISSVQAEDLAIYYCQNDYTYPLTFGTGTKLELK

EC50 [4]: 0.282 µg/mL
MFI (Max) [4]: 4270
EC50 of antibody induced ADCC effect on SKOV3 [6]: 0.0327 µg/mL
EC50 of antibody induced CDC effect [8]: 3.21 nM
EC50 [1]: 7.98 nM
B11: 30-C7-C11-D4 (human IgG1 chimeric antibody) (antibody, V domains shown)
VH: EVQLVESGPGLVKPSQSLSLTCTVTGYSITSDYAWNWIRQFPGNKLEWMGYISHSGSTSYNPSLKSRISITRDTSKNQFFLQLNSVTTEDTATYYCARSLGRRWYFDVWGAGTTVTVSS
VL: DIVMTQSPSSLAMSVGQKVTLSCKSSQSLLNSSTQKNYLAWYQQKPGQSPKLLVYFASTRDSGVPDRFIGSGSGTEFTLTISSVQAEDLADYFCQQHYIIPFTFGAGTKLEIK
notes: as for B9
Top cytotoxicity (%), CDC [8]: 60.3%
